B1: HDV Ribozyme (parent)
chain: GGCCGGCAUGGUCCCAGCCUCCUCGCUGGCGCCGGCUGGGCAACAUUCCGAGGGGACCGUCCCCUCGGUAAUGGCGAAUGGGACCCA

Variants of B1 are the subject of this data set. Briefly: self-cleavage, relative activity (ratio to wild type); higher = more cleavage; co-transcriptional.
Consider C4U A8U, for which the self-cleavage came out at 0.415.
As to G17U C26G, the self-cleavage amounted to 0.608.
G35A C48G: the self-cleavage was found to be 0.539.
For G52A A70G, the self-cleavage was 1.02.
On to U9G C26A, for which the self-cleavage came out at 1.23.
As for A16U G34C, the self-cleavage was found to be 0.369.
G54U C58G: the self-cleavage came out at 0.997.
On to C18A C19G, for which the self-cleavage worked out at 0.145.
As to C58G A78C, the self-cleavage worked out at 0.102.
With G40C C85G, the self-cleavage was 0.16.
As to G1U C57U, the self-cleavage was 0.428.
The value for G17A U37G was 0.172; that for G6C G35C was 0.0723; that for G29C G76U was 0.119.
On to G40A G76C, for which the self-cleavage is 0.947.
As for C3A C18G, the self-cleavage stood at 0.
Take C24U C48A: the self-cleavage came out at 0.692.
Take C14A G31A: the self-cleavage came to 0.121.
The value for U23G C58U was 0.582; that for C18G G25U was 0.0386.
As for C21G U47A, the self-cleavage came to 0.0773.
With U12C G28A, the self-cleavage worked out at 0.0707.
For C4U A77U, the self-cleavage is 0.415.
In the case of G17U C48G, the self-cleavage was 0.482.
Consider G34U U46G, for which the self-cleavage was 0.196.
Take G52U A70G: the self-cleavage worked out at 0.878.
The result for A43U G82A reads 0.0811; that for C15G U37G, 0; that for G68U U69C, 0.935.
Turning to G39C G81U, the self-cleavage is 0.143.
For G2U G53U, the self-cleavage was 0.0256.
For G17U G29A, the self-cleavage is 0.0314.
With G38U G74C, the self-cleavage came to 0.115.
For G6C G50C, the self-cleavage is 0.554.
The result for U12A G52A reads 0.364.
The result for A51G U79C reads 0.354; that for C44G G82U, 0.232; that for G59C A77G, 1.13.
Turning to C26G G53U, the self-cleavage worked out at 0.812.
Consider C49G C63A, for which the self-cleavage worked out at 0.489.
For the variant C22A U37G, the self-cleavage amounted to 0.0462.
Turning to G35U C61A, the self-cleavage is 0.428.
The result for G50U G76C reads 1.19.
In the case of U37A U65A, the self-cleavage worked out at 0.122.
As to U47C A83C, the self-cleavage came to 0.554.
U23G A78U: the self-cleavage was 0.0875.
As to C36U C41A, the self-cleavage came out at 0.683.
On to C7A C26U, for which the self-cleavage was 0.919.
As to G17C U23C, the self-cleavage is 0.208.
In the case of U37A U47C, the self-cleavage came out at 0.289.
With C30A A45C, the self-cleavage turned out to be 0.0678.
With A16U U20C, the self-cleavage turned out to be 0.277.
Consider G25U G31U, for which the self-cleavage came out at 0.0875.
With G50C C84G, the self-cleavage came to 0.542.
The value for G53U G55U was 0.915; that for G76C A77G was 1; that for G38U U47G was 0.166.
The result for A8G U79A reads 0.692; that for G5U G52A, 0.283.
For the variant A56G G81U, the self-cleavage was found to be 0.332.
U69G C86U: the self-cleavage is 0.723.
The value for G1U C15A was 0.302; that for G38U C86G was 0.0573.
The result for C7G A77U reads 0.0875.
With A70C G74U, the self-cleavage came out at 0.504.
For the variant U72C A77C, the self-cleavage stood at 0.246.
The value for C26G G74C was 0.0573.
Turning to A42C A56G, the self-cleavage was 0.415.
As for C44U A70U, the self-cleavage worked out at 0.955.
As for G35U A43C, the self-cleavage turned out to be 0.208.
The value for U27C A43U was 0.237; that for U65C G80C was 0.249; that for A42U G54U was 0.465.
In the case of C48G G50U, the self-cleavage worked out at 0.941.
For the variant C4A C33G, the self-cleavage was determined as 0.
Take G2A C7A: the self-cleavage is 0.
The result for G25A A51G reads 0.269.
The result for G55C U69A reads 0.973.
As to G82U, the self-cleavage amounted to 0.41.
Turning to C22G U46A, the self-cleavage amounted to 0.0519.
For the variant G28C G31U, the self-cleavage came to 0.244.
On to C32G C57U, for which the self-cleavage amounted to 0.0702.
Consider G5U C58G, for which the self-cleavage is 0.262.
The value for U20C U79A was 0; that for C48G was 0.988.
For the variant G53A G81C, the self-cleavage was determined as 0.266.
With U60A A83G, the self-cleavage came to 1.04.
G10U G39U: the self-cleavage came out at 0.346.
As to G34C C44A, the self-cleavage was 0.0831.
C21A G73U: the self-cleavage was found to be 0.0528.
For A8C U23C, the self-cleavage was found to be 0.506.
On to G5U G53A, for which the self-cleavage was determined as 0.332.
On to G11A G54A, for which the self-cleavage is 0.371.
In the case of G5U C86G, the self-cleavage turned out to be 0.26.
On to C15U C18U, for which the self-cleavage came out at 0.44.
In the case of U46C C63G, the self-cleavage amounted to 0.72.
G2C G53C: the self-cleavage was determined as 0.125.
In the case of G38U C41G, the self-cleavage was 0.325.
In the case of G6U C58G, the self-cleavage is 0.628.
The value for G6U C58U was 0.617.
For A16C C21U, the self-cleavage was determined as 0.199.
Take G34U A56G: the self-cleavage amounted to 0.288.
With G10U G50U, the self-cleavage was found to be 0.796.
For the variant G5C G11A, the self-cleavage came out at 0.0449.
Consider G28C G40U, for which the self-cleavage stood at 0.032.
As to C7U U60C, the self-cleavage was 1.26.
Consider C18G A71G, for which the self-cleavage turned out to be 0.
The result for C24U C49U reads 0.758; that for C15G G59A, 0.831; that for U37G G54U, 0.135.
The value for U46A G73C was 0.317; that for G29U G59A was 0.102.
The value for U65A A70U was 1.14; that for G17A C64U was 0.722.
In the case of A45G G50C, the self-cleavage was 0.989.
With C32G C48G, the self-cleavage was found to be 0.0437.
The value for U20A C57A was 0.0978; that for C57U A78C was 0.312; that for A16U G76A was 0.939.
The value for A45G C85A was 1.01.
With C13U G31U, the self-cleavage is 0.185.
In the case of C7U G53A, the self-cleavage amounted to 0.964.
On to C18U G82U, for which the self-cleavage came to 0.111.
The result for C26G U46G reads 0.554.
G40C C62U: the self-cleavage was determined as 0.324.
As to G59A U72G, the self-cleavage was determined as 0.637.
For the variant C30A G80U, the self-cleavage amounted to 0.153.
With C36U U46G, the self-cleavage amounted to 0.504.
Take C24A A78U: the self-cleavage was found to be 0.0923.
For C13A C58A, the self-cleavage is 0.155.
The value for C15G C21G was 0.
The result for G35C G52U reads 0.318; that for U46G G50C, 0.429.
Turning to G11U G73C, the self-cleavage was 0.126.
The value for G6C G25U was 0.166.
C3U U37C: the self-cleavage amounted to 1.08.
The result for U60G G67C reads 0.98.
On to G29A C75A, for which the self-cleavage worked out at 0.0852.
For G17U G81U, the self-cleavage stood at 0.381.
As to U27C A87U, the self-cleavage turned out to be 0.6.
Take G5C G59U: the self-cleavage was determined as 0.128.
With G54C C62G, the self-cleavage was found to be 0.855.
The result for A8U C15U reads 0.935; that for G73U C85U, 0.458; that for U60A G74C, 0.225.
For the variant C15A C75A, the self-cleavage came out at 0.115.
In the case of C4U A87U, the self-cleavage was determined as 0.817.
The value for G11U G38A was 0.0135.
Consider U60A G76U, for which the self-cleavage was determined as 1.01.
Consider U27A C63G, for which the self-cleavage was 0.764.
The value for C62G G68U was 0.425; that for C62G A83C was 0.253; that for A45G C57A was 0.979.
Take C26A C62U: the self-cleavage stood at 1.12.
The value for C26U G50U was 1.12; that for C4G G11U was 0.0767; that for C14G G68C was 0.383.
In the case of G1U C66G, the self-cleavage came out at 0.211.
With C4U C63A, the self-cleavage is 0.95.
For U12G U47A, the self-cleavage turned out to be 0.776.
Take C13U U65G: the self-cleavage came out at 0.895.
Consider U12A G68U, for which the self-cleavage stood at 0.312.
On to A83G A87G, for which the self-cleavage worked out at 0.733.
As for C61A U69G, the self-cleavage came out at 1.03.
On to C41U G52C, for which the self-cleavage turned out to be 0.819.
Regarding A78C A83U, the self-cleavage turned out to be 0.166.
U9C A51C: the self-cleavage turned out to be 1.49.
